# Measurements reported in paper PMC4004294.
# Like-named read-outs stand apart in the source and are kept apart here.
# Columns and labels:
# [1] = target: glutathione S-transferase (GST) tagged HIV-1 IN (HIV-1); test: AlphaScreen or HTRF
# [2] = target: HIV-1 integrase fused to mVenus (IN-mVenus), transincorporated into virions as Vpr-IN-mVenus (HIV-1); test: FRET or BRET
# [3] = target: HIV-1 integrase fused to mVenus (IN-mVenus), transincorporated into virions as Vpr-IN-mVenus (HIV-1); test: FRET or BRET; remark: listed apart in the source
Substance,fold lower AlphaScreen signal than wild-type IN [1] [fold],FRET ratio (r FRET) [2],FRET ratio (r FRET) [3]
HIV-1 IN point mutant IN(W108G)-His6 (enzyme),4,,
"HIV-1 integrase fused to mTFP1 (IN-mTFP1), transincorporated into virions as Vpr-IN-mTFP1 (enzyme)",,1.3,1.27
